Measurements as given in patent US20260008815A1, “CYCLIC PEPTIDE OR SALT THEREOF, AND USES THEREOF” (FUJIFILM Corporation, priority 2023, published 2026).
Numbered stars: 1 amine (or outer) side, 2 acyl side, 3 side chain; on linkers, the order of the positions; unused ones are H or OH. Bridge positions count the residues as written; N and C are the ends. Ends that are not written are not given here. acetyl = acetyl (haloacetyl before ring closure) on the side-chain amine, O=C(C[*:1])[*:2]; COCH2 = acetyl group that carries the bridge

target: T1, Recombinant Human FGFR2 alpha (IIIc) Fc Chimera Protein (Homo sapiens, UniProt P21802); test: ELISA binding affinity of enzymatically synthesized peptide to FGFR; conditions: ELISA luminescence signal at 10 nmol/L peptide, SEQ ID NO: 47 at 10 nmol/L standardized to 1; enzyme synthesis product
T1 construct: Fc (chimera); purchased R&D systems 712-FR-050
In short: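 FGFR2 alpha (IIIc) Fc chimera (5 ng/well) was immobilized, and Myc-tagged peptide was bound 3 h at room temperature, then detected with anti-Myc antibody (2 h) and chemiluminescent substrate. Signal was corrected against FGFR-free wells. Score A–D was the luminescence at 10 nmol/L peptide, normalized to cyclic peptide SEQ ID NO: 47.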

T1 sequence (P21802 with tags, fused parts or gaps limits assumed): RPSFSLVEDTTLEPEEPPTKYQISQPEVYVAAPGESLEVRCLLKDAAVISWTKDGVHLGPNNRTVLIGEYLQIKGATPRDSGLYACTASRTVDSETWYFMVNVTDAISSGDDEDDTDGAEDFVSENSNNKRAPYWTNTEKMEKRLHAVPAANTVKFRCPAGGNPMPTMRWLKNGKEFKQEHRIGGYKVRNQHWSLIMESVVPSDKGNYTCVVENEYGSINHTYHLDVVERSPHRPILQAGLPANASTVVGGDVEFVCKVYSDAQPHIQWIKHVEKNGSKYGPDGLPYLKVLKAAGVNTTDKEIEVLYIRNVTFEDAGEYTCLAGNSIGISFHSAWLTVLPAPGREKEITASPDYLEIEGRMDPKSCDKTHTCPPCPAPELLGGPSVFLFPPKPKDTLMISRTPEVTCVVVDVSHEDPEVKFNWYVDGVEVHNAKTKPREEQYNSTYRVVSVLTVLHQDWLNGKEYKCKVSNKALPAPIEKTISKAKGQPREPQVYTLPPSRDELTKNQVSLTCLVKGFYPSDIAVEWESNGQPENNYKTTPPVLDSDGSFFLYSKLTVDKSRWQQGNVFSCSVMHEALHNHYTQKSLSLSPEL

Evaluation result of binding affinity to FGFR	Substance
A (0.7 or more)	311 (YCEENYLDPEQYQYFIYFK(COCH2)V; thioether 2-19 (inferred)) [compound 311]
B (0.5 or more and less than 0.7)	396 (YCEENYLDPEQHQYFIYFK(COCH2)R; thioether 2-19 (inferred)) [compound 396]
C (0.1 or more and less than 0.5)	401 (QCQFLNYVNHVQWHYFWVFK(COCH2)S; thioether 2-20 (inferred)) [compound 401]
A (0.7 or more)	341 (YCEENYLDKEQYQYFIYFK(COCH2)Y; thioether 2-19) [compound 341]
C (0.1 or more and less than 0.5)	382 (PCDRQLYYLYQYIHK(COCH2)T; thioether 2-15 (inferred)) [compound 382]
C (0.1 or more and less than 0.5)	374 (QCLQDLYRYLYLLK(COCH2)A; thioether 2-14) [compound 374]
B (0.5 or more and less than 0.7)	386 (RCHHNFHHARQWGFFHHYK(COCH2)R; thioether 2-19 (inferred)) [compound 386]
C (0.1 or more and less than 0.5)	426 (PCDPLNLQQWYTAVYQLWHK(COCH2)R; thioether 2-20 via acetyl) [compound 426]
C (0.1 or more and less than 0.5)	425 (GCGYTQLHYQHLFAWLHARK(COCH2)V; thioether 2-20 via acetyl) [compound 425]
A (0.7 or more)	356 (YCEENYLDPEQYMYFIYFK(COCH2)Y; thioether 2-19) [compound 356]
A (0.7 or more)	349 (YCEMNYLDPEQYQYFIYFK(COCH2)Y; thioether 2-19) [compound 349]
A (0.7 or more)	287 (YCEENYLDPEQYQYFDYFK(COCH2)Y; thioether 2-19) [compound 287]
C (0.1 or more and less than 0.5)	365 (LCYLYQYLYQAK(COCH2)F; thioether 2-12) [compound 365]
A (0.7 or more)	288 (YCEENYLDPEQYQYFEYFK(COCH2)Y; thioether 2-19) [compound 288]
C (0.1 or more and less than 0.5)	418 (DCLRQQVYQYLYILFQNDIAK(COCH2)D; thioether 2-21 via acetyl) [compound 418]
A (0.7 or more)	286 (YCEENYLDPEQYQYFTYFK(COCH2)Y; thioether 2-19) [compound 286]
C (0.1 or more and less than 0.5)	377 (HCLHYLYQYLYTVK(COCH2)Y; thioether 2-14 (inferred)) [compound 377]
A (0.7 or more)	320 (YCEENYLDPEQYQYFIYFK(COCH2)R; thioether 2-19 (inferred)) [compound 320]
C (0.1 or more and less than 0.5)	416 (LCTQFPASQRYYFALYRLWHKS; Description of Artificial Sequence: Cyclic peptide) [compound 416]
A (0.7 or more)	347 (MCEENYLDPEQYQYFIYFK(COCH2)Y; thioether 2-19) [compound 347]

The next lines start with the substance.

Substance	Evaluation result of binding affinity to FGFR
128 (PCVQNYFNDLQWIFLQHYK(COCH2)R; thioether 2-19 (inferred)) [compound 128]	A (0.7 or more)
278 (YCEENYLDPEQYQYFLYFK(COCH2)Y; thioether 2-19) [compound 278]	A (0.7 or more)
130 (HCDGNWWNSQQFFYLLLYK(COCH2)H; thioether 2-19 (inferred)) [compound 130]	A (0.7 or more)
216 (YCEENYLSPEQYQYFIYFK(COCH2)Y; thioether 2-19 (inferred)) [compound 216]	A (0.7 or more)
96 (QCPQYFINPVQWRYFQHYK(COCH2)N; thioether 2-19) [compound 96]	C (0.1 or more and less than 0.5)
51 (VCHSNFLSAVQYAYFYQYKH; Description of Artificial Sequence: Cyclic peptide) [compound 51]	A (0.7 or more)
78 (WCPQNFINPVQWRYFQHYK(COCH2)N; thioether 2-19 (inferred)) [compound 78]	A (0.7 or more)
178 (YCEDNYLDPEQYQYFIYFK(COCH2)Y; thioether 2-19 (inferred)) [compound 178]	A (0.7 or more)
253 (YCEENYLDPEQIQYFIYFK(COCH2)Y; thioether 2-19 (inferred)) [compound 253]	C (0.1 or more and less than 0.5)
155 (YCVENYLDPEQYQYFIYFK(COCH2)Y; thioether 2-19 (inferred)) [compound 155]	A (0.7 or more)
87 (QCPQNFINPVHWRYFQHYK(COCH2)N; thioether 2-19 (inferred)) [compound 87]	A (0.7 or more)
101 (QCPQNFINPVQIRYFQHYK(COCH2)N; thioether 2-19 (inferred)) [compound 101]	C (0.1 or more and less than 0.5)
218 (YCEENYLEPEQYQYFIYFK(COCH2)Y; thioether 2-19 (inferred)) [compound 218]	A (0.7 or more)
238 (YCEENYLDPLQYQYFIYFK(COCH2)Y; thioether 2-19 (inferred)) [compound 238]	A (0.7 or more)
227 (YCEENYLDWEQYQYFIYFK(COCH2)Y; thioether 2-19 (inferred)) [compound 227]	A (0.7 or more)
196 (YCEENYVDPEQYQYFIYFK(COCH2)Y; thioether 2-19 (inferred)) [compound 196]	A (0.7 or more)
215 (YCEENYLQPEQYQYFIYFK(COCH2)Y; thioether 2-19 (inferred)) [compound 215]	A (0.7 or more)

Substance	Evaluation result of binding affinity to FGFR
121 (DCYWDDQQYSFLQLYK(COCH2)R; thioether 2-16 (inferred)) [compound 121]	A (0.7 or more)
169 (YCEINYLDPEQYQYFIYFK(COCH2)Y; thioether 2-19 (inferred)) [compound 169]	A (0.7 or more)
199 (YCEENYWDPEQYQYFIYFK(COCH2)Y; thioether 2-19 (inferred)) [compound 199]	A (0.7 or more)
237 (YCEENYLDPPQYQYFIYFK(COCH2)Y; thioether 2-19 (inferred)) [compound 237]	A (0.7 or more)
180 (YCEHNYLDPEQYQYFIYFK(COCH2)Y; thioether 2-19 (inferred)) [compound 180]	A (0.7 or more)
135 (QCTYLAQYLVERYHLTK(COCH2)T; thioether 2-17 (inferred)) [compound 135]	C (0.1 or more and less than 0.5)
148 (ECEENYLDPEQYQYFIYFKY; Description of Artificial Sequence: Cyclic peptide) [compound 148]	A (0.7 or more)
248 (YCEENYLDPDQYQYFIYFK(COCH2)Y; thioether 2-19 (inferred)) [compound 248]	A (0.7 or more)
133 (ECLGNYFSHEQYQYLLQYK(COCH2)I; thioether 2-19 (inferred)) [compound 133]	A (0.7 or more)
50 (ACGQNFYHPVQFHYFIAYKQ; Description of Artificial Sequence: Cyclic peptide) [compound 50]	A (0.7 or more)
60 (KCPQNFINAVQWRYFQHYK(COCH2)N; thioether 2-19 (inferred)) [compound 60]	A (0.7 or more)
126 (LCEINWLSQEQYGYFIEYK(COCH2)T; thioether 2-19 (inferred)) [compound 126]	A (0.7 or more)
83 (DCPQNFINPVQWRYFQHYK(COCH2)N; thioether 2-19 (inferred)) [compound 83]	A (0.7 or more)
120 (QCWYIQQYIWERYFLWHNK(COCH2)E; thioether 2-19 (inferred)) [compound 120]	C (0.1 or more and less than 0.5)
88 (QCPQNFINPVQWRYLQHYK(COCH2)N; thioether 2-19 (inferred)) [compound 88]	A (0.7 or more)
39 (QCENWLSQDQWKYFWQYK(COCH2)I; thioether 2-18 (inferred)) [compound 39]	A (0.7 or more)
73 (LCPQNFINPVQWRYFQHYK(COCH2)N; thioether 2-19 (inferred)) [compound 73]	A (0.7 or more)
